According to article PMC8865655:

Molecular target: Cry2-mCh-METTL3 (wild type, full-length construct), Q86U44
Experiment: FRET or BRET; FLIM-FRET in live HEK293T; EGFP fusion as donor, Cry2-mCh-METTL3 (mCherry) as acceptor; photons collected from inside condensates formed after blue light illumination (30 seconds)
Details: remark: other sources report otherwise

Sequence of Cry2-mCh-METTL3 (wild type, full-length construct), Q86U44 (Q86U44 whole entry, the tested form may be a part): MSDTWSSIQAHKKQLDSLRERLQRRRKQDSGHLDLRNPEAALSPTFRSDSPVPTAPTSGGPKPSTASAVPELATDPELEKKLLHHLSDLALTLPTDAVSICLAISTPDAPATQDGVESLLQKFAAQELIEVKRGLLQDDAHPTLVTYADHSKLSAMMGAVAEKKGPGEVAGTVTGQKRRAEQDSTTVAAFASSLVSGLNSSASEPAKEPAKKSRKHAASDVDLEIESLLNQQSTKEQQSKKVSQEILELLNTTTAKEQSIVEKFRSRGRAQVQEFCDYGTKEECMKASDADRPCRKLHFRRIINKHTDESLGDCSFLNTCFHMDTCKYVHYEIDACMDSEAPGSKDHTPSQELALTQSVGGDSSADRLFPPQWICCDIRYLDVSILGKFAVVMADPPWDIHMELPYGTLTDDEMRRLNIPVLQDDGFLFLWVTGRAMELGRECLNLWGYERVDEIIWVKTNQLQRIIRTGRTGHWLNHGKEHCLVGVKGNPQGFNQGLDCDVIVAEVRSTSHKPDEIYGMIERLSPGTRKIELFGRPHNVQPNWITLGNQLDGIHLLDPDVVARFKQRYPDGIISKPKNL

EGFP fluorescence lifetime (FLIM-FRET): 2.01 ns
B1: EGFP-WTAP, Q15007 1-396 (natural protein)
chain: MTNEEPLPKKVRLSETDFKVMARDELILRWKQYEAYVQALEGKYTDLNSNDVTGLRESEEKLKQQQQESARRENILVMRLATKEQEMQECTTQIQYLKQVQQPSVAQLRSTMVDPAINLFFLKMKGELEQTKDKLEQAQNELSAWKFTPDSQTGKKLMAKCRMLIQENQELGRQLSQGRIAQLEAELALQKKYSEELKSSQDELNDFIIQLDEEVEGMQSTILVLQQQLKETRQQLAQYQQQQSQASAPSTSRTTASEPVEQSEATSKDCSRLTNGPSNGSSSRQRTSGSGFHREGNTTEDDFPSSPGNGNKSSNSSEERTGRGGSGYVNQLSAGYESVDSPTGSENSLTHQSNDTDSSHDPQEEKAVSGKGNRTVGSRHVQNGLDSSVNVQGSVL
